Tested on: 47× CAG RNA
Assay: In vitro RNA phase separation/gelation assay (fluorescence micrographs, index of dispersion)
Format: biochemical
Conditions: proteinase K 60 U/mL, DNase I 200 U/mL, RNaseA 0.7 U/mL; 10 minutes, room temperature
Experimental: For phase separation/gelation assays, RNAs were diluted to concentrations of 0.5 ng/μL to 0.5 μg/μL in 10 mM Tris pH 7.0, 10 mM MgCl2, 25 mM NaCl buffer, unless indicated otherwise. Nuclease-free buffer stocks were purchased from Ambion. RNA was denatured at 95° C. for 3 minutes and cooled down at 1-4° C. per minute to 37° C. final temperature in a thermocycler and imaged immediately. Samples were visualized using a custom spinning disk confocal microscope (Nikon Ti-Eclipse equipped with a Yokogawa CSU-X spinning disk module) using a×100, 1.49 numerical aperture oil immersion objective and an air-cooled EM-CCD (electron multiplying charge-coupled device). The extent of phase separation/gelation was quantified by the index of dispersion (σ^2/μ) of fluorescence intensity per pixel (pixel size 83 nm×83 nm). Briefly, variance in the fluorescence intensity per image was determined, and normalized to the mean fluorescence intensity in the solution phase of the RNA. For dilute solution (<10% of imaging area occupied with clusters), this parameter reports the extent of inhomogeneity in the sample. At least 20 independent imaging areas (about 1,800 μm^2 each) were analyzed for each condition to achieve a representative measure across the sample. Each datum point in the bar graphs represents one imaging area. […]

B1: RNase A: ribonuclease enzyme (protein, UniProt P61823 27-150, looked up)
Ribonuclease pancreatic: KETAAAKFERQHMDSSTSAASSSNYCNQMMKSRNLTKDRCKPVNTFVHESLADVQAVCSQKNVACKNGQTNCYQSYSTMSITDCRETGSSKYPNCAYKTTQANKHIIVACEGNPYVPVHFDASV
dissolution of 47× CAG RNA clusters by enzyme treatment: dissolved

B2: proteinase K: protease enzyme (protein, UniProt P06873 106-384, looked up)
Proteinase K: AAQTNAPWGLARISSTSPGTSTYYYDESAGQGSCVYVIDTGIEASHPEFEGRAQMVKTYYYSSRDGNGHGTHCAGTVGSRTYGVAKKTQLFGVKVLDDNGSGQYSTIIAGMDFVASDKNNRNCPKGVVASLSLGGGYSSSVNSAAARLQSSGVMVAVAAGNNNADARNYSPASEPSVCTVGASDRYDRRSSFSNYGSVLDIFGPGTSILSTWIGGSTRSISGTSMATPHVAGLAAYLMTLGKTTAASACRYIADTANKGDLSNIPFGTVNLLAYNNYQA
dissolution of 47× CAG RNA clusters by enzyme treatment: not

From US20190218613A1, “METHODS OF DETECTING THE FORMATION OF CELLULAR CLUSTERS OF RNA” (The Regents of the University of California, priority 2017, published 2019)
